What was measured:
Assay in all cases: ProtoArray methylated with G9a SET domain
[1] = biological target: TTC27, G9a-methylated (human) (UniProt Q6P3X3)
[2] = biological target: VPS29, G9a-methylated (human) (UniProt Q9UBQ0)
[3] = biological target: SSR4, G9a-methylated (human) (UniProt P51571)
[4] = biological target: PTCD2, G9a-methylated (human) (UniProt Q8WV60)
[5] = biological target: ZNF695, G9a-methylated (human) (UniProt Q8IW36)
[6] = biological target: TMEM32, G9a-methylated (human) (UniProt Q8N4V1)
[7] = biological target: DIRAS1, G9a-methylated (human) (UniProt O95057)
[8] = biological target: CNTD1, G9a-methylated (human) (UniProt Q8N815)
[9] = biological target: CMTM3, G9a-methylated (human) (UniProt Q96MX0)
[10] = biological target: SH3YL1 (hit 65), G9a-methylated (human) (UniProt Q96HL8)
[11] = biological target: NME1, G9a-methylated (human) (UniProt P15531)
[12] = biological target: MGC10433 (RNA-binding protein 42), G9a-methylated (human) (UniProt Q9BTD8)
[13] = biological target: MAGEH1, G9a-methylated (human) (UniProt Q9H213)
[14] = biological target: RTN1, G9a-methylated (human) (UniProt Q16799)
[15] = biological target: FKBP14, G9a-methylated (human) (UniProt Q9NWM8)
[16] = biological target: SCGB1A1, G9a-methylated (human) (UniProt P11684)
[17] = biological target: MRPL21, G9a-methylated (human) (UniProt Q7Z2W9)
[18] = biological target: CTXN1, G9a-methylated (human) (UniProt P60606)
[19] = biological target: RDH11, G9a-methylated (human) (UniProt Q8TC12)
[20] = biological target: HS3ST1, G9a-methylated (human) (UniProt O14792)
[21] = biological target: NME7, G9a-methylated (human) (UniProt Q9Y5B8)
[22] = biological target: LPAL2, G9a-methylated (human) (UniProt Q16609)
[23] = biological target: SMAP1, G9a-methylated (human) (UniProt Q8IYB5)
[24] = biological target: FTH1 (hit 109), G9a-methylated (human) (UniProt P02794)
[25] = biological target: GHRL, G9a-methylated (human) (UniProt Q9UBU3)
[26] = biological target: CTSZ, G9a-methylated (human) (UniProt Q9UBR2)
[27] = biological target: TMED5, G9a-methylated (human) (UniProt Q9Y3A6)
[28] = biological target: LYRM7, G9a-methylated (human) (UniProt Q5U5X0)
[29] = biological target: ACSL4, G9a-methylated (human) (UniProt O60488)
[30] = biological target: CRYZL1, G9a-methylated (human) (UniProt O95825)
[31] = biological target: RHBDD1, G9a-methylated (human) (UniProt Q8TEB9)
[32] = biological target: C10orf58, G9a-methylated (human) (UniProt Q9BRX8)
[33] = biological target: GYPC, G9a-methylated (human) (UniProt P04921)
[34] = biological target: RAB33B, G9a-methylated (human) (UniProt Q9H082)
[35] = biological target: PPARG, G9a-methylated (human) (UniProt P37231)
[36] = biological target: CAB39L, G9a-methylated (human) (UniProt Q9H9S4)
[37] = biological target: CSF3, G9a-methylated (human) (UniProt P09919)
[38] = biological target: ZBP1, G9a-methylated (human) (UniProt Q9H171)
[39] = biological target: PPIL5, G9a-methylated (human) (UniProt Q96L50)
[40] = biological target: Magmas, G9a-methylated (human) (UniProt Q9Y3D7)
[41] = biological target: HPCAL4, G9a-methylated (human) (UniProt Q9UM19)
[42] = biological target: RPL14, G9a-methylated (human) (UniProt P50914)
[43] = biological target: RASSF4, G9a-methylated (human) (UniProt Q9H2L5)
[44] = biological target: SERPINB2, G9a-methylated (human) (UniProt P05120)
[45] = biological target: UBE2D2, G9a-methylated (human) (UniProt P62837)

Sequence of ZBP1, G9a-methylated (human) (Q9H171 whole entry): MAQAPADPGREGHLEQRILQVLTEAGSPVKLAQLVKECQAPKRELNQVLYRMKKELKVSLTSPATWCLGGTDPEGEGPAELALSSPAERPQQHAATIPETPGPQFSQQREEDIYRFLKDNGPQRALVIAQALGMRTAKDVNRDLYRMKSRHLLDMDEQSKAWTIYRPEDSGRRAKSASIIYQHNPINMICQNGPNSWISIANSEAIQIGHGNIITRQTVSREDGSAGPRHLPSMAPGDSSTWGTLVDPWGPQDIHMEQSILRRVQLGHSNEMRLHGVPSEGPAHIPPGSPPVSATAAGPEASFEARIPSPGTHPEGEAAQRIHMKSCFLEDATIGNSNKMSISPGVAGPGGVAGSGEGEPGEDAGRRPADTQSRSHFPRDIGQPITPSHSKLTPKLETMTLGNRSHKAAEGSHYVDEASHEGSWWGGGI
Sequence of FTH1 (hit 109), G9a-methylated (human) (P02794 whole entry): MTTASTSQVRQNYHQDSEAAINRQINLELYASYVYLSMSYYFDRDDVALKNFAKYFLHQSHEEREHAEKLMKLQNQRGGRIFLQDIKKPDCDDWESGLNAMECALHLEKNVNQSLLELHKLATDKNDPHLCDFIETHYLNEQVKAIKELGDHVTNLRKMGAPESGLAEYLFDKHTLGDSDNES
Sequence of Magmas, G9a-methylated (human) (Q9Y3D7 whole entry): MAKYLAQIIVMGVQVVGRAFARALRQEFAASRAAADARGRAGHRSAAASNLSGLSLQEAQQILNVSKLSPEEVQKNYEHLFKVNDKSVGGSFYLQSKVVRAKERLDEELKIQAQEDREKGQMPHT
Sequence of MAGEH1, G9a-methylated (human) (Q9H213 whole entry): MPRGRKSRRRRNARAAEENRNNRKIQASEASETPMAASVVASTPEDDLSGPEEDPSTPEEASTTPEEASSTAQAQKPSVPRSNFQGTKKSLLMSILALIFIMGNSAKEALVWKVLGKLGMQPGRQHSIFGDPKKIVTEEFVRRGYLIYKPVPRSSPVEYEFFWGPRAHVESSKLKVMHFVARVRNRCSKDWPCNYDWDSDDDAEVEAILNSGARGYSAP
Sequence of PPIL5, G9a-methylated (human) (Q96L50 whole entry): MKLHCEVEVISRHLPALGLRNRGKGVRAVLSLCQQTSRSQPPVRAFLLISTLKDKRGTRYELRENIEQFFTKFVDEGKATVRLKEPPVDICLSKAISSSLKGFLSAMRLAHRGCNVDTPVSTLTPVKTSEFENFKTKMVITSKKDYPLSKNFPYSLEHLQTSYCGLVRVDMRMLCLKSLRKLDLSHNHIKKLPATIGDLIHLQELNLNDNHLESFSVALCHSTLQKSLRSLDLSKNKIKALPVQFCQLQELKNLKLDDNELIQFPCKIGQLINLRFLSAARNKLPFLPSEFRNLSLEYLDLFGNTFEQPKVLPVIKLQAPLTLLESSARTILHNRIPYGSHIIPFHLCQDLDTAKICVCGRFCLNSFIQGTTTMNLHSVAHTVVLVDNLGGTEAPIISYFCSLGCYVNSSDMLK
Sequence of GYPC, G9a-methylated (human) (P04921 other isoform, or with tags, fused parts or gaps limits assumed): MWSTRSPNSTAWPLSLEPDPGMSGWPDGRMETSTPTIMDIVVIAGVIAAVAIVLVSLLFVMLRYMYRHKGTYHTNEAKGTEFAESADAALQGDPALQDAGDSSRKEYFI
Sequence of LPAL2, G9a-methylated (human) (Q16609 22-132 limits assumed): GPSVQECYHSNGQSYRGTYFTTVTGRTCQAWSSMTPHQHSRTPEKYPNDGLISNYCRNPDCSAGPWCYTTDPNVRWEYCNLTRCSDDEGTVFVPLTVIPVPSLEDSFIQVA
Sequence of HS3ST1, G9a-methylated (human) (O14792 21-307 limits assumed): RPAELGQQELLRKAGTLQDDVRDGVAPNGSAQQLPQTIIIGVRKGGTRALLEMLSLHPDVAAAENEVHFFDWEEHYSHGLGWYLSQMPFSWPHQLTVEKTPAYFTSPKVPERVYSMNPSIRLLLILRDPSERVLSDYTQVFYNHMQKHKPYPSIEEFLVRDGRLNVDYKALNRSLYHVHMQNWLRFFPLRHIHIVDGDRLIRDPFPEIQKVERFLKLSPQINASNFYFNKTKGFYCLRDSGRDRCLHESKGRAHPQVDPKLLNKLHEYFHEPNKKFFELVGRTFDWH
Sequence of LYRM7, G9a-methylated (human) (Q5U5X0 whole entry): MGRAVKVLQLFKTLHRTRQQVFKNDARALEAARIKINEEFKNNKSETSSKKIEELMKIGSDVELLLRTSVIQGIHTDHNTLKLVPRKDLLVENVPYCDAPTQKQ
Sequence of MGC10433 (RNA-binding protein 42), G9a-methylated (human) (Q9BTD8 whole entry): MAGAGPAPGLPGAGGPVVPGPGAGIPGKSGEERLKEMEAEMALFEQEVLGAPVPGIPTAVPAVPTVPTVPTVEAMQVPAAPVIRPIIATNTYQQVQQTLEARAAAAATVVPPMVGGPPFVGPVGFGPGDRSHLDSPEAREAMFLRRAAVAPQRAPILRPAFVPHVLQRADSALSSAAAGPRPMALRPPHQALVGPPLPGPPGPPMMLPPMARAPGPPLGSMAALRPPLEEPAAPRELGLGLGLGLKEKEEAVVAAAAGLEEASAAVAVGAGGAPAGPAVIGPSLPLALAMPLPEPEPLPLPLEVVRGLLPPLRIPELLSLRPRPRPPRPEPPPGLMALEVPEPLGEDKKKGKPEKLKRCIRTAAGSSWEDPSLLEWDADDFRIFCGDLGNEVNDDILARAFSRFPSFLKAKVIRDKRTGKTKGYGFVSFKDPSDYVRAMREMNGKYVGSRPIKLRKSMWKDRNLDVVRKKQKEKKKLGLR
Sequence of SMAP1, G9a-methylated (human) (Q8IYB5 whole entry): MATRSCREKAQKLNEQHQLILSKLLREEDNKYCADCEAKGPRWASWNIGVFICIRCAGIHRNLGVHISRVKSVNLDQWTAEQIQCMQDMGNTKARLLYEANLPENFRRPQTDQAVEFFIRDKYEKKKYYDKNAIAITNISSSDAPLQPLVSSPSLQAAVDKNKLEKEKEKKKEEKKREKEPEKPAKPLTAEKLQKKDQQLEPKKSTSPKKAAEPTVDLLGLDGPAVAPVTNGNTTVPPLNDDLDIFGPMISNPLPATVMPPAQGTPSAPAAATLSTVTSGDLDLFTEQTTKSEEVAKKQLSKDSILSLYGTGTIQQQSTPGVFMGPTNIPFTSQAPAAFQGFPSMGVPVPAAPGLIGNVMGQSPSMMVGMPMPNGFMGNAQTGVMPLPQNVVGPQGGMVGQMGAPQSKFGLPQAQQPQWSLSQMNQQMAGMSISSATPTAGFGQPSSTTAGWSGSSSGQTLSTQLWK
Sequence of NME1, G9a-methylated (human) (P15531 whole entry): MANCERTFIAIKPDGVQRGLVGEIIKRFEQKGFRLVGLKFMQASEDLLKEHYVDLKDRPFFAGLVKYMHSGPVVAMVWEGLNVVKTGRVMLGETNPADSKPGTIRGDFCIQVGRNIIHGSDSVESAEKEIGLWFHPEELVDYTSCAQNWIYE
Sequence of RAB33B, G9a-methylated (human) (Q9H082 whole entry): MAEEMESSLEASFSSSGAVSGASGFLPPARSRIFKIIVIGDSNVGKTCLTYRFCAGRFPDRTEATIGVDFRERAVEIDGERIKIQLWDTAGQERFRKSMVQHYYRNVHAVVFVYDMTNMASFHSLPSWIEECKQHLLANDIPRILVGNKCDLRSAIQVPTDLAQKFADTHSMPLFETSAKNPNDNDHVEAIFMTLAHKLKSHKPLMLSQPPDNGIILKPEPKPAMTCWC
Sequence of SSR4, G9a-methylated (human) (P51571 24-173 limits assumed): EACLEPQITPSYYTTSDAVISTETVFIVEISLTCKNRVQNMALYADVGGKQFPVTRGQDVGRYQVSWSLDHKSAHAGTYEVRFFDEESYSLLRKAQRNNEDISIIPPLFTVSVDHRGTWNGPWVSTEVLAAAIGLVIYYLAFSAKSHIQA
Sequence of TMEM32, G9a-methylated (human) (Q8N4V1 whole entry): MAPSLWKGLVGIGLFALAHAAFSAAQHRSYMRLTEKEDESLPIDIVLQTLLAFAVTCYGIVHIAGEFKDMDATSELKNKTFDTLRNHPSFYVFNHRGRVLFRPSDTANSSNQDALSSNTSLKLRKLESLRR
Sequence of GHRL, G9a-methylated (human) (Q9UBU3 24-117 limits assumed): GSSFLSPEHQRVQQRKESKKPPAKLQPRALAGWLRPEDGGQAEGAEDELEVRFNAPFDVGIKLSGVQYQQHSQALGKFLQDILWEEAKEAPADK
Sequence of CTSZ, G9a-methylated (human) (Q9UBR2 24-303 limits assumed): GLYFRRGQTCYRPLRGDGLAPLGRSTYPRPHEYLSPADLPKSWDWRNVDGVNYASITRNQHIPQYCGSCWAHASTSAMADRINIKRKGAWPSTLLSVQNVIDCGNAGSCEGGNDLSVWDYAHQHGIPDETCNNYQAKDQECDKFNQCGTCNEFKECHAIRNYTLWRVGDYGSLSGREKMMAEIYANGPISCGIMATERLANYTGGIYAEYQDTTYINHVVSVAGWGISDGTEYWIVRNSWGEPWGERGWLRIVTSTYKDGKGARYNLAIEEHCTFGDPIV
Sequence of C10orf58, G9a-methylated (human) (Q9BRX8 whole entry): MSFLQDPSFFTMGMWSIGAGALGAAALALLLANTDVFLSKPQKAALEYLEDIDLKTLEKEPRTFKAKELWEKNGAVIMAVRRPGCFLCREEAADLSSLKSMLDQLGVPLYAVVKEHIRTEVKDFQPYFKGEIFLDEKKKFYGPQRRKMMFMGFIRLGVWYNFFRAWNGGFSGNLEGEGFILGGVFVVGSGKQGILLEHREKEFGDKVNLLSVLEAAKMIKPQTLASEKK
Sequence of CRYZL1, G9a-methylated (human) (O95825 whole entry): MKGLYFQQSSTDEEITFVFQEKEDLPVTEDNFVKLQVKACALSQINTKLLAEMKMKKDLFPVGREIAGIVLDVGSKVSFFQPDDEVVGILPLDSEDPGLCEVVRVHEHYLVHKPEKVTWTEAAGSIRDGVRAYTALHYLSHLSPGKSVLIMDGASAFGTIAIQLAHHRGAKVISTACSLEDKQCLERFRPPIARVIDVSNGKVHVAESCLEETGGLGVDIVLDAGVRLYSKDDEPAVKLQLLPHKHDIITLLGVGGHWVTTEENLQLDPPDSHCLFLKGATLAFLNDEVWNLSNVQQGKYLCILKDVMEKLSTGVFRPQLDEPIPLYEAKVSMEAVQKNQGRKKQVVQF
Sequence of FKBP14, G9a-methylated (human) (Q9NWM8 20-211 limits assumed): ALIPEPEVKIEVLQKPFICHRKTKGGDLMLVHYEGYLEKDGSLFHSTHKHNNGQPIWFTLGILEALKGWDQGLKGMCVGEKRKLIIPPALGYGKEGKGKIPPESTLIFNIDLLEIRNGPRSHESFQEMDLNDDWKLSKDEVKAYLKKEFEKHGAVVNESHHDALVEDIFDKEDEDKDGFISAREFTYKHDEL

## 3× Flag-3×MBT (designed binder)
[1]
  G9a Average SNR: 20.7
[2]
  G9a Average SNR: 16.6
[3]
  G9a Average SNR: 14.4
[4]
  G9a Average SNR: 19.4
[5]
  G9a Average SNR: 20.3
[6]
  G9a Average SNR: 13.6
[7]
  G9a Average SNR: 29.2
[8]
  G9a Average SNR: 12.7
[9]
  G9a Average SNR: 14.1
[10]
  G9a Average SNR: 16.5
[11]
  G9a Average SNR: 15.2
[12]
  G9a Average SNR: 14.1
[13]
  G9a Average SNR: 44
[14]
  G9a Average SNR: 14.7
[15]
  G9a Average SNR: 15
[16]
  G9a Average SNR: 19.6
[17]
  G9a Average SNR: 23.3
[18]
  G9a Average SNR: 19.7
[19]
  G9a Average SNR: 26.6
[20]
  G9a Average SNR: 13.3
[21]
  G9a Average SNR: 14.1
[22]
  G9a Average SNR: 33.3
[23]
  G9a Average SNR: 21.5
[24]
  G9a Average SNR: 38.7
[25]
  G9a Average SNR: 24.5
[26]
  G9a Average SNR: 13.6
[27]
  G9a Average SNR: 15.1
[28]
  G9a Average SNR: 17.2
[29]
  G9a Average SNR: 13.5
[30]
  G9a Average SNR: 11.2
[31]
  G9a Average SNR: 12.3
[32]
  G9a Average SNR: 17
[33]
  G9a Average SNR: 13.4
[34]
  G9a Average SNR: 20.2
[35]
  G9a Average SNR: 12.8
[36]
  G9a Average SNR: 14.6
[37]
  G9a Average SNR: 19
[38]
  G9a Average SNR: 14.7
[39]
  G9a Average SNR: 11.8
[40]
  G9a Average SNR: 13.9
[41]
  G9a Average SNR: 11.5
[42]
  G9a Average SNR: 18.4
[43]
  G9a Average SNR: 15.7
[44]
  G9a Average SNR: 17.9
[45]
  G9a Average SNR: 37.2

Reference: patent US20140274782A1, “AFFINITY REAGENTS AND METHODS FOR DETECTION, PURIFICATION, AND PROTEOMIC ANALYSIS OF METHYLATED PROTEINS” (The Board of Trustees of the Leland Stanford Junior …, priority 2013, published 2014)
